Here are results for seven molecules from patent US11479601B2, “Antibodies specific to Sonic Hedgehog and method of use thereof” (The Regents of the University of California, priority 2016, dated 2022).

The test system of assay [1] is Shh+ cells (A549). Briefly: Shh rate by flow cytometry in drug-treated A549 cells. The format is cell-based, human. As to the method:
FACS (1:40). The secondary antibody was a donkey anti-mouse FITC-linked antibody (ab97029, 1:100, Abcam). For cell analysis after treatment assays (chemotherapy or GDC0449), a dead cell marker (SytoxRed, Invitrogen) was also used. For human fresh samples, an anti-CD45 APC-linked antibody (ab28106, 1:100, Abcam), and a dead cells marker (SytoxRed, Invitrogen) were added. For staining of stable transfected cell lines, mouse anti-HA antibody (Abcam, 1:100) and rabbit anti-FLAG antibody (Cell Signaling; 1:400) were used. Corresponding secondary antibodies were donkey anti-mouse AlexaFluor647 (Invitrogen, 1:1000) and donkey anti-rabbit AlexFluor594 (Invitrogen, 1:1000) antibodies. Flow cytometry analyses were performed on AccuriC6 flow cytometer (BD Biosciences), and FACS on FACSAria II (BD Biosciences). Flow analyses were based at least on 200,000 cells, and each test was made at least in triplicate. For all experiments, a negative control with cells processed without primary antibody was used. Sorted cells (Shh+ and Shh− cells) were collected on fresh media, and seeded on culture plates or freezed at −80° C. according to further analyses. Flow cytometry analysis was performed without membrane permeabilization prior to labeling the cells, unless otherwise indicated (e.g., FIG. 1D). Cisplatin was purchased from Sigma, and freshly reconstituted in PBS (2 g/1). Docetaxel was purchased from Tocris Bioscience, reconstituted in DMSO (5 g/1 stock dilution at −20° C.; further dilution in fresh culture medium) for in vitro assays, or reconstituted in ethanol/polysorbate 80 (1:1; 5 g/1 stock dilution at −20° C.; further dilution in PBS) for in vivo assays. GDC0449 was purchased from Selleck Chemicals, and reconstituted in DMSO (30 mM stock dilution). Shh human recombinant protein was obtained from EBioscience, and used at 1200 ng/ml. The mouse Shh-C-terminal antibody (mentioned above) was used for flow cytometry and FACS (1:40). The secondary antibody was a donkey anti-mouse FITC-linked antibody (ab97029, 1:100, Abcam). For cell analysis after treatment assays (chemotherapy or GDC0449), a marker for dead cells (SytoxRed®, Invitrogen) was also used. For fresh human samples, an anti-CD45 APC-linked antibody (ab28106, 1:100, Abcam) was added, and a marker for dead cells (SytoxRed®, Invitrogen). For staining of stable transfected cell lines, a mouse anti-HA antibody (Abcam, 1:100) and a rabbit anti-FLAG antibody (Cell Signaling; 1:400) were used. Corresponding secondary antibodies were donkey anti-mouse AlexaFluor647 (Invitrogen, 1:1 000) and donkey anti-rabbit AlexFluor594 (Invitrogen, 1:1 000). Flow cytometry analyses were performed on an AccuriC6 flow cytometer (BD Biosciences), and FACS on a FACSAria II (BD Biosciences). […]
On the technique in general: In flow cytometry, cells or beads pass a laser one at a time.

Assay [2] concerns Shh gene expression. Briefly: Shh gene expression by qPCR in drug-treated A549 cells. In kind it is cell-based, human. The note with it: after cisplatin treatment. For orientation: Real-time PCR tracks product formation cycle by cycle.
Experimental: RNA from unsorted cells was extracted with Qiagen Rneasy® Minikit (Quiagen), according to manufacturer instructions. RNA from sorted cells was extracted with Arcturus PicoPure RNA Isolation Kit (Life technologies). cDNA was then synthesized with iScript cDNA Synthesis Kit (Bio-Rad), according to manufacturer instructions. Commercial primers for Shh gene were obtained from Origen. Quantitative PCR was performed on Applied Biosystems' 7900HT Fast Real-Time PCR System, with triplicate for each gene analysis. Gene expression analysis was calculated with deltaCT method, with normalization with endogenous control (18s gene) (normalized gene expression level=2^−deltaCT(test gene)−deltaCT(18s)). For ddPCR, droplets creation, PCR and results analysis were performed according to manufacturer instructions (BioRad, QX100 ddPCR System, Quantasoft software). Results of ddPCR were expressed as FAM concentrations (copies/μl). RNA from unsorted cells was extracted with Qiagen's RNeasy Mini kit (Qiagen) according to the manufacturer's instructions. […] Quantitative RT-PCR (qRT-PCR) was performed on an Applied Biosystems 7900HT Fast Real-Time PCR System, in triplicate for each sample. Gene expression analysis was calculated with the delta-deltaCT method normalized to an endogenous control (18S gene). […] Results of ddPCR were expressed as FAM concentrations (copies/0).
Assay [3] relates to advanced SCLC. The note with it: sonidegib in addition to cisplatin/etoposide; cited from earlier work.
Assay [4] deals with A549 cells. Briefly: Viability of A549 cells treated with Shh antibodies ± GLI inhibitor 249C. Conditions: Homo sapiens, A549. In kind it is cell-based, human. The protocol:
The effect of the C-terminal Shh antibodies from clones 2G4 and 2D9 on the viability of A549 cells was determined. A549 cells were exposed to increasing concentrations of the C-terminal Shh antibodies (2G4, 2D9), or antibodies against the N-terminal portion of Shh protein (6D3, 2E1), and the effective dose (ED50) was determined (assay 1: FIG. 16A; assay 2: FIG. 16B). […] Possibly due to the fact that very few cells express full-length Shh on the cell surface, the cytotoxic effect of the C-terminal Shh antibodies was not as potent as the cytotoxic effect of the N-terminal antibodies.
Next, the cytotoxicity of the C-terminal Shh antibodies was tested when the antibodies were used in conjunction with a small-molecule inhibitor of GLI zinc-finger transcription factor signaling, 249C (4-(5-chlorofuran-2-yl)-1,3-bis(2,4-difluorophenyl)-5-methyl-N-((4-methylmorpholin-2-yl)methyl)-4,5-dihydro-1H-pyrazole-5-carboxamide; Compound 135 above). A549 cells were exposed to varying concentrations of the C-terminal antibodies (2G4, 2D9) or the N-terminal antibodies (6D3, 2E1), in the presence or absence of a very low dose (40 nM) of 249C. (The IC50 of 249C in A549 cells is ˜70 nM.)

In assay [5] the target is full-length human Sonic Hedgehog (Shh) expressed in cells (endogenous, or transfected with pCMV-Shh) (human) (UniProt Q15465). Briefly: FACS of non-permeabilised A549 cells.
The target is the same in assay [6]. Briefly: flow cytometry, untransfected cells (No transfection).
Assay [7] has the same target. Briefly: flow cytometry, A549 cells transfected with pCMV-Shh.
For assay [8] the target is unchanged. Briefly: flow cytometry, cells transfected with full-length Shh.
Assay [9] shares this target. The assay is described as follows: flow cytometry, A549 + vector control (endogenous Shh).
Assay [10] shares this target. Briefly: flow cytometry of ground up permeabilised A549 xenograft tumour cells from control IgG-treated mice.
For assay [11] the target is unchanged. Briefly: FACS of non-permeabilised A549 cells labeled with the antibody; Total Cells Sorted 19 million, % Shh+ Cells 0.06%.
Assay [12] deals with A549 Shh− cells. The assay is described as follows: Migration/wound healing assay on A549 Shh− cells. The format is cell-based, human. Conditions: Shh recombinant protein 1200 ng/mL, day 3. The protocol: Migration assay was performed by wound healing assay. Monolayers of cells were: cultured, scratched, treated with media containing proteins and/or drugs at different concentrations: Shh protein, DMSO, and GDC0449, and recorded 0 and 24, 72 and 96 hours after treatment.
Wound healing assays were performed to study cell migration. Monolayers of cells were cultured, scratched, treated with media containing proteins and/or drugs at different concentrations: Shh protein, DMSO, and GDC0449-recorded at 0, 24, 72 and 96 hours after treatment.

In assay [13] the target is T1, recombinant full-length Shh protein (human, UniProt Q15465 24-462, limits assumed).
T1 construct: Printed only as 'full-length recombinant Shh protein'; also called full-length recombinant Shh protein
Briefly: BLI (Octet), response (nm) against Shh conc (nM), four points between about 28 and 165 nM, fitted line, R2 = 0.97.

The target in assay [14] is T1, recombinant full-length Shh protein. The assay is described as follows: BLI (Octet), response (nm) against Shh conc (nM), four points between about 28 and 165 nM, fitted line, R2 = 0.98. (BLI is a label-free optical method that tracks binding on a fibre tip over time.)

As to `N.N.[Cl][Pt][Cl]` [cisplatin], in assay [1] (A549 cells, cisplatin 1 mM, 72 h), the “Shh rate, Shh+ cells of live cells” value was determined as 5%. Besides, in [1] (NSCLC cells, escalating doses of cisplatin), the “Shh rate with escalating doses” value is “absolute augmentation”. Further, in [2], the “Shh gene expression (qPCR)” value was “elevation”.

As to `Cc1c(C(=O)Nc2ccc(N3C[C@@H](C)O[C@@H](C)C3)nc2)cccc1-c1ccc(OC(F)(F)F)cc1` [sonidegib, N-[6-[(2S,6R)-2,6-Dimethylmorpholin-4-yl]pyridin-3-yl]-2-methyl-3-[4-(trifluoromethoxy)phenyl]benzamide], the response rate in assay [3] was 79%.

In the case of `CN1CCOC(CNC(=O)C2(C)C(c3ccc(Cl)o3)C(c3ccc(F)cc3F)=NN2c2ccc(F)cc2F)C1` (stereo not drawn) [Ab 249C, 4-(5-chlorofuran-2-yl)-1,3-bis(2,4-difluorophenyl)-5-methyl-N-((4-methylmorpholin-2-yl)methyl)-4,5-dihydro-1H-pyrazole-5-carboxamide], the IC50 (as a rule, the concentration that gives 50% inhibition) in assay [4] is roughly 70 nM.

In the case of “commercial C-terminal Shh antibody (Abcam ab53281, rabbit)”, the % Shh+ cells sorted in [5] worked out at 0.06%. Besides, the % of cells labeled came out at 0.11% in [6], 5.1% in [7], 2.45% in assay [8] and 1% in assay [9]. In [10], the % Shh-labeled cells came out at 80%. In addition, the # Shh+ Cells in assay [11] worked out at 3810 cells.

As to “human recombinant N-terminal Shh peptide: Shh human recombinant protein from eBioscience, used at 1200 ng/ml”, the “augmentation in the migration rate” value in assay [12] is recorded as 15%.

B1: Ab 1C11-2D9 (antibody, mouse IgG1, kappa, V domains shown)
VH: EVKLVESGGGLVKPGGSLKLSCAASGFTFSSYTMSWVRQTPAKRLEWVATISSGGGNTYYPDSVKGRFTISRDNARNTLYLQMSSLRSEDTAMYYCARDYRSLFAYWGQGTLVTVSA
VL: QIVLTQSPAIMSASPGEKVTITCSASSSVSYMHWFQQKPGTSPKLWIYSTSNLASGVPARFSGSGSGTSYSLTISRMEAEDAATYYCQQRSSYPFTFGSGTKLEIKR
notes: also called clone 2D9; Ab11-2D9
Consider B1, for which, in assay [13], the Kd (as a rule, a measure of binding affinity in units of concentration) came to 4.6 nM.

B2: Ab 1C11-2G4 (antibody, IgG1, V domains shown)
VH: B1 VH
VL: QIVLTQSPAIMSASPGEKVTITCSASSSVSYMHWFQQKPGTSPKLWIYSTSNLASGVPARFSGSGSGTSYSLTISRMEAEDAATYYCQQRSSYPFTFGSGTKLEIK
notes: also called clone 2G4; Ab 2G4
Consider B2, for which the Kd in [14] was determined as 4 nM.
